From the supplement of paper PMC12667976

B1: library; numbered along this chain (parent)
chain: MATDAALRRLLRLHRTEIAVAVDSAFPLLHALADHDVVPEDKFQETLHLKEKEGCPQAFHALLSWLLTQDSTAILDFWRVLFKDYNLERYGRLQPILDSFPKDVDLSQPRKGRKPPAVPKALVPPPRLPTKRKASEEARAAAPAALTPRGTASPGSQLKAKPPKKPESSAEQQRLPLGNGIQTMSASVQRAVAMSSGDVPGARGAVEGILIQQVFESGGSKKCIQVGGEFYTPSKFEDSGSGKNKARSSSGPKPLVRAKGAQGAAPGGGEARLGQQGSVPAPLALPSDPQLHQKNEDECAVCRDGGELICCDGCPRAFHLACLSPPLREIPSGTWRCSSCLQATVQEVQPRAEEPRPQEPPVETPLPPGLRSAGEEVRGPPGEPLAGMDTTLVYKHLPAPPSAAPLPGLDSSALHPLLCVGPEGQQNLAPGARCGVCGDGTDVLRCTHCAAAFHWRCHFPAGTSRPGTGLRCRSCSGDVTPAPVEGVLAPSPARLAPGPAKDDTASHEPALHRDDLESLLSEHTFDGILQWAIQSMARPAAPFPS

Variants of: B1
Experiment: AIRE transcriptional activation functional score (insulin promoter-GFP; nonsense median 0, synonymous median 1) (normalised score); higher = higher AIRE activity (more reporter activation)
Conditions: with insulin promoter-GFP reporter in HEK293
Protocol: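 Deep mutational scan of full-length human AIRE (codon-optimized cDNA, DT-POPCode NNN libraries over three regions) integrated at a Bxb1 landing pad in HEK293 cells carrying an insulin core promoter-GFP reporter at a Flp-In site. Cells were sorted for the top 10% GFP about 14 days after transfection. Variant frequency log-ratios (select vs non-select, TileSeq) were rescaled so that the nonsense median is 0 and the synonymous median is 1, then averaged over biological replicates.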

AIRE transcriptional activation functional score of substitutions, site by site:
R12: D -0.77, E -0.463, F -0.626, G 0.415, H -0.211, I -0.464, K 1.84, L 0.419, M 0.457, P 0.187, Q -1.11, S -0.0905, T -0.393, V 0.442, W -0.0189, Y -0.191
L13: A 0.273, C 0.26, D -0.291, E 0.79, F 1.11, G -0.0939, H 0.357, I 0.695, M 1.23, N -0.209, P 0.275, Q 0.368, R 1.36, S -0.217, T 0.418, V 0.593, W 0.425, Y 1.42
H14: A -0.0434, C -0.236, D -0.577, E -1.27, F 0.561, G 0.338, I -0.18, L -0.153, M -0.84, N 1.68, P -0.256, Q 0.144, R -0.348, S 0.00226, T 0.312, V -0.238, W 0.335, Y 0.888
R15: A -0.222, C -0.257, D 0.279, F 0.0396, G -0.349, H -0.146, I 0.486, K -1.95, L 0.37, M 0.112, P -0.373, Q 0.45, S -0.0525, T 0.316, V 0.0544, W 0.0452, Y -0.904
T16: A -0.419, C 0.227, D -0.128, E 1.64, F -0.112, G 0.0399, H -0.704, I -0.0145, K -0.208, L -0.113, M 0.203, N 0.597, P -0.109, Q -0.475, R -0.0166, S -0.287, V 0.0381, W -0.366, Y 0.309
E17: A 0.78, C -0.595, D 1.42, F -0.224, G -0.233, H 0.241, I -0.454, K 0.389, L 0.113, M 0.896, N -0.662, P -0.151, Q -0.406, R -0.438, S -0.0199, T 0.383, V 0.0123, W -0.29, Y -0.411
I18: A -0.708, C -0.426, D 0.751, E 0.682, F 0.0176, G 0.378, H 0.614, K 0.219, L 0.304, M 0.409, N -0.247, P -0.146, Q -0.126, R 0.483, S 0.138, T -0.194, V -0.092, W 0.00284, Y -0.479
A19: C 0.605, D 0.412, E 0.513, F 0.0254, G 0.563, H 0.194, I -0.333, K 0.838, L 0.0523, M 1.9, P -0.228, Q -1.03, R 0.348, S 0.921, T -0.102, V -0.0384, W -0.29, Y -2.2
V20: A -0.889, C -0.981, D 0.0604, E -1.26, F 0.146, G -0.208, H -0.433, I 1.31, K -0.579, L 0.278, M 0.622, N -0.0183, P 0.184, Q -0.25, R -0.283, S -0.474, T 0.0422, W 0.633, Y 0.662
A21: C 0.675, D -0.73, E 0.657, F -0.0679
